We go through three molecules from US20260265410A1 (UNIVERSITY OF FLORIDA RESEARCH FOUNDATION, published 2026).

Assay [1] has as its target T1, human CD105-ECD: amino acid residues Met 1-Gly 586 of human CD105 (Sino bio: Cat: 10149-H02H) (human, UniProt P17813 26-586).
T1 construct: Bought; also called hCD105-ECD-hFc; hCD105-hFc
T1 sequence: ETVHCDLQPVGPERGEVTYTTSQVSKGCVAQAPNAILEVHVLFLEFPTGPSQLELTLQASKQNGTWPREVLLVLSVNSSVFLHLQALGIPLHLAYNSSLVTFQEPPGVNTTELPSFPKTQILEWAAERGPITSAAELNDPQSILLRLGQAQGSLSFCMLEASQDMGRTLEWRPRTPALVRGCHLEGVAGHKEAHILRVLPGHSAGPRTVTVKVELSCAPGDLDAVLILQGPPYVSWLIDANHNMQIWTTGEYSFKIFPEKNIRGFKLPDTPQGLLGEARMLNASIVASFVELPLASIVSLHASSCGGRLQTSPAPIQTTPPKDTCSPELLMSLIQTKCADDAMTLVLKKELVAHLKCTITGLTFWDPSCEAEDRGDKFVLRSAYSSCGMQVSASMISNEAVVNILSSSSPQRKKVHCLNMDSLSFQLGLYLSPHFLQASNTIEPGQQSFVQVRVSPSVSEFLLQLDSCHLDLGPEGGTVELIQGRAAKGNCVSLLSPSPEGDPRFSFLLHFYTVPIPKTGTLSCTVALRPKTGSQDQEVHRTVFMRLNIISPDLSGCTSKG
Put plainly: ELISA, absorbance at 405 nm, one condition per Fab and antigen. In general terms: An ELISA detects its analyte on a solid surface through an enzyme-linked reagent.

Assay [2] has as its target T2, human Nectin-2 on the cell surface (U937 cells) (human, UniProt Q92692 32-538).
T2 construct: Endogenous Nectin-2 of U937 cells; also called PVRL2; CD112
T2 sequence: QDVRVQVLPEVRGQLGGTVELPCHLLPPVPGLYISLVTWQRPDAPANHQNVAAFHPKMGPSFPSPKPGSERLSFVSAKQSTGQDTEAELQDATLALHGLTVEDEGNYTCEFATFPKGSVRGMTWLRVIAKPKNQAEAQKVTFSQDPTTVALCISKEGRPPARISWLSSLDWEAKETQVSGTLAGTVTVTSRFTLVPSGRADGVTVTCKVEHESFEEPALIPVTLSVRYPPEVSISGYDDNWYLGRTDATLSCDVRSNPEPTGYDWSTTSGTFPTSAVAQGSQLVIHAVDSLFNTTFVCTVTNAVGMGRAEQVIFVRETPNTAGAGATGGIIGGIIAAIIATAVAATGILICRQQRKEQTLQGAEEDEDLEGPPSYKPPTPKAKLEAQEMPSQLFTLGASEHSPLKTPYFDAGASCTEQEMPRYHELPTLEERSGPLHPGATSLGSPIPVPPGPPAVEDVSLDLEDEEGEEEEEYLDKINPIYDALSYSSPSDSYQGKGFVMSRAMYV
In words: flow cytometry on whole U937 cells, screen of the 28 clones (Ctrl row = 0); Nectin-2 is named as the antigen on U937 cells only in the later examples. A general note: A flow cytometer gives signals particle by particle.

Assay [3] has as its target T3, N-terminal domain (NTD) of human PTPRG (amino acid residues 20~448 of human PTPRG) (human, UniProt P23470 20-448).
T3 construct: also called hPTPRG-NTD; human PTPRG NTD
T3 sequence: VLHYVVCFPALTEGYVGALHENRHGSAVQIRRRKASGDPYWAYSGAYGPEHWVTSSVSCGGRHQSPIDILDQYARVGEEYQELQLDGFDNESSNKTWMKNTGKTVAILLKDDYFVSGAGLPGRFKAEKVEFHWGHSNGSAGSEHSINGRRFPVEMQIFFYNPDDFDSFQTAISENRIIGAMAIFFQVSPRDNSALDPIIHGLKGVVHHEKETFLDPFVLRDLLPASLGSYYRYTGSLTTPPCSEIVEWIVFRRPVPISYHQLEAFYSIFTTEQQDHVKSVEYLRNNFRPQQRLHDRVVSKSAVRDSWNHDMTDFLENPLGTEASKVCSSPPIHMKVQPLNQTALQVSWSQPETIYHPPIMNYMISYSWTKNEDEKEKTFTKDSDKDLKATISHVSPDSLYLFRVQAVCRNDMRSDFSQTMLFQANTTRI
Put plainly: ELISA, one condition per Fab and antigen; y axis 0 to 1.8 without name or unit.

The target of assay [4] is T4, mouse PTPRG ECD (amino acid residues 20-733 of mouse PTPRG) fused to hFc (mouse, UniProt Q05909 20-733).
T4 construct: Produced in-house; also called mPTPRG-ECD; Mouse PTPRG-ECD-hFc; not shown: human Fc (hFc)
T4 sequence: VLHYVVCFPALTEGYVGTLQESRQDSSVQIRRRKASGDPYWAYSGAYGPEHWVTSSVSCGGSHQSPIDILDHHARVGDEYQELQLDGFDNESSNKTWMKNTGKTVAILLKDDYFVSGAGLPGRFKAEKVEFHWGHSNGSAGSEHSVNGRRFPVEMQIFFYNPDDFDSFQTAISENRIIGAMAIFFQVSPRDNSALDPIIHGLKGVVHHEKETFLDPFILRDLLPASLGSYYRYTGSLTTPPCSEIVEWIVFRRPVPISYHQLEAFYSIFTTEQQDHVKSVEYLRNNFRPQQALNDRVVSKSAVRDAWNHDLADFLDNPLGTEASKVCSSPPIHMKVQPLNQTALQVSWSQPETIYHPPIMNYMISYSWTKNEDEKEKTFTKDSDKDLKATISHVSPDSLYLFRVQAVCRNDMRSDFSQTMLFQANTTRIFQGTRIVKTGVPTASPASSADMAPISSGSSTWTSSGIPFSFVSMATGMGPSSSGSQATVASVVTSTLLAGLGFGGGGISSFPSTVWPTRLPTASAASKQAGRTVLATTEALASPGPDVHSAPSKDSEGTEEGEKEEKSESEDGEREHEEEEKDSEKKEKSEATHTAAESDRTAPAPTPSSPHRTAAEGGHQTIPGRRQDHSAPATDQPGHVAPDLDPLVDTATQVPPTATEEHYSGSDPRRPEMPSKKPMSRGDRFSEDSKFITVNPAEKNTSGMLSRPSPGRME
The description is as above.

The target of assay [5] is T5, human PTPRG extracellular domain (ECD) (residues 20~736 of human PTPRG) fused to hFc (human, UniProt P23470 20-736).
T5 construct: Produced in-house by transient transfection of Expi293 cells; also called hPTPRG-ECD-hFc; hPTPRG-ECD; not shown: human Fc (hFc)
T5 sequence: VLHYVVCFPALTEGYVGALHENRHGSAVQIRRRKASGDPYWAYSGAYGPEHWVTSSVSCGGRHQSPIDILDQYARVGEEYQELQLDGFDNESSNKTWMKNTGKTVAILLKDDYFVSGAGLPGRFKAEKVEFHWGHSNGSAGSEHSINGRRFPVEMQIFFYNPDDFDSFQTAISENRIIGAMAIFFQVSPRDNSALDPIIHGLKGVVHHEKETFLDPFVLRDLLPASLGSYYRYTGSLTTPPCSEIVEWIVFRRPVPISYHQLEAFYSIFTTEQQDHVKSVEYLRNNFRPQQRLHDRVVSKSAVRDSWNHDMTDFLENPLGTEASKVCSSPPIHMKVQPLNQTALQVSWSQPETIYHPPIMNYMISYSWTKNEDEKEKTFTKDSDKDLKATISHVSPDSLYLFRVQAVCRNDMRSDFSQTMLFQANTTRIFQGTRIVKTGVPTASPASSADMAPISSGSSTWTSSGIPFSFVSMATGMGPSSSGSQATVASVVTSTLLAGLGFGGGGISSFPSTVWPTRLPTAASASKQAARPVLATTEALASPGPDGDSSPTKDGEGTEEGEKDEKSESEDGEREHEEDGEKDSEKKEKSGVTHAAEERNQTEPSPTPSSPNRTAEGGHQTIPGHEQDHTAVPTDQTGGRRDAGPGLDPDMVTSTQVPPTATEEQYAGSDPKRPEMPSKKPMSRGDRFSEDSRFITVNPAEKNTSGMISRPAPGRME
The assay is described as above.

The target in assay [6] is T6, human Nectin-2 extracellular domain (amino acid residues 1-360 of human Nectin-2) fused to hFc (human, UniProt Q92692 32-360).
T6 construct: Bought; also called hNectin-2-ECD-hFc; NECTIN2-ECD-hFc; not shown: human Fc (hFc)
T6 sequence: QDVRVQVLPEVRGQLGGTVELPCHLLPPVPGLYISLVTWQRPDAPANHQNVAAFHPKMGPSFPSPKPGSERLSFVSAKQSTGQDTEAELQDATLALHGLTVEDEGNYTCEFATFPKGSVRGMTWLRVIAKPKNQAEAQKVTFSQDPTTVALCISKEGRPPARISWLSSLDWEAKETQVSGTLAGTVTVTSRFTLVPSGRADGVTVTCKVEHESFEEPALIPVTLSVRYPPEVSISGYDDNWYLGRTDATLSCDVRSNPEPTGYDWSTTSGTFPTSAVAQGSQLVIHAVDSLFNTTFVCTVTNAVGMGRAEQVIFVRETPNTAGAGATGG
Put plainly: ELISA, absorbance at 405 nm, one condition per Fab and antigen.

Assay [7] concerns the target T5, human PTPRG extracellular domain (ECD) …. The assay is described as above.
In assay [8] the target is T2, human Nectin-2 on the cell surface …. Put plainly: competition flow cytometry on U937 cells; competitor of 0.5 µg Alexa 647 labelled Fab_2282.
The target of assay [9] is T6, human Nectin-2 extracellular domain …. In words: SPR, summary table; antigen column hNectin2 ECD.
Assay [10] has the same target. In words: SPR, Fab on human Nectin-2-ECD-hFc, five concentrations. On the technique in general: In SPR one partner is held on a chip, and binding of the other changes the refractive index at the surface.

B1: Fab_484 (Fab, V domains shown)
VH: AQSLEESGGRLVTPGTPLTLTCTASGFSLSSYHMAWVRQAPGKGLEWIGIISSSGSTYYASWAKGRFTISKTSTTVDLKITSPTTEDTATYFCARGFGWGPNLWGPGTLVTVSS
VL: SFVLTQPASVQVNLGQMVSLTCTADTLSRSYASWYQQKPGQAPVLLIYRDTSRPSGVPDRFSGSTSGNTATLTISGAQAGDEADYYCATDDNSGSSYQYVFGGGTQLTVTG
notes: Chimeric rabbit/human Fab; also called N484
With B1, the binding result in [1], in assay [3], in [4] and in assay [5] was “no binding” throughout. Further, in assay [2], the “flow cytometry binding value (the table prints no name or unit)” value was found to be 94.8.

B2: Fab_2810 (Fab, V domains shown)
VH: QEQLEESGGRLVTPGTPLTLTCTASGFSLTNYYMTWVRQAPGKGLEWIGTIYAGTGSTWYASWVKGRFTISKTSTTVDLKITSPTTEDTATYFCVRGYLGWSSGIENIWGPGTLVTVSS
VL: SFVLTQPASVQVNLGQTVSLTCTADTLSRSYASWYQQKPGQAPVLLIYRDTSRPSGVPDRFSGSSSGNTATLTISGAQAGDEADYYCATSDGSGSTFHFVFGGGTQLTVTG
notes: Chimeric rabbit/human Fab; also called E2810; mAb_2810
As to B2, the binding result in [6] is given as “no binding”; in assay [7], “no binding”; in [8], “no binding (tested: 5 µg)”.

B3: Fab_350 (Fab, V domains shown)
VH: QEQLEESGGRLVTPGTPLTLTCTASGFSLSSYHMSWVRQAPGKGLEWIGLINTGDSAYYASWAKGRFTISRTSTTVDLRITSPTTEDTATYFCARTFGDGFNLWGPGTLVTISS
VL: SFVLTQPASVQVDLGQTVSLTCTADTLSRSYASWYQQKPGQAPVLLIYRDTSRPSGVPDRFSGSSSGNTATLTISGAQAGDEADYYCATEDSGDSSYQYVFGGGTQLTVTG
notes: Chimeric rabbit/human Fab; also called N350; clone 350
Consider B3, for which, in [2], the “flow cytometry binding value (the table prints no name or unit)” value amounted to 89.3. Further, in [9], the Kd was 67.5 nM, the koff is 0.0077 s⁻¹ and the kon was determined as 114000 M⁻¹ s⁻¹. The same molecule yielded a Kd in [10] of 67.5 nM.

As usually defined, the Kd is the constant that tells how readily two partners part at equilibrium. Low values mean tighter binding, high ones weaker binding. As usually defined, the koff is the first-order rate constant of dissociation. A higher koff goes with a short-lived complex. In general, kon refers to a measure of how fast the partners come together.
